According to the DeepSol protein solubility set:

experiment: soluble on expression in E. coli; label from the status in PepcDB or PDB records

Q: For “MGSDKIHHHHHHMLESTEKGEVRKTVGNYRLILMNDPNLQGAFRLNMFTDKIDITRDLGWYRESDSLTDVDLKFLVVYLEKHYGLSNEKRIEDVIKVVANENRYHPVLDRINSITWDGRERIRYALHHFLGAEVSEYTYEVMKLFMIGTIARISCPGIKFEVMLCLVGGQGAGKSTFLRFLAMEDDWFTDDLKKMDDDNVYRKIQGHLIIEFPEMVAILNAKNVEDTKSFMSRQKDTYKTPYDRHPKDHKRQCVFAGSSNSLDFLPMDRSGNRRFLPILCNMEEAETHILDDEKTSREYIDQMWAEAMEIYRSGKCQLRLPKEMEKELCEYQKQFMQEDTKKELILDYLEHYEGSMVCSRQLYSEALGNDGNPAQWEIREINDIMNNCSDWIAFSNPRHFPEPYRRQKGWEKPDNRGQDFQPITKEQMEQLSLPPEWMER”, which “soluble on expression in E. coli” value is on record?
A: not soluble

Q: For “MGSDKIHHHHHHMDAANVDLKAFTEDFYHRLCGAHLESVKETLVYLKHETDVWVEVTTLLIPGENDSPEEIDAQTKWMMAALGPDVPLHFSAFHPDWKMKDKTNTPPETLTRARDIAIRNGLRYVYTGNVHDPAGGGTYCSGCGALLIGRDWYELSTWALTPEGHCRECGTPLPGRFEAAPGTWGRKRQPVRFQR”, which “soluble on expression in E. coli” value is on record?
A: not soluble

Q: With “MVFYGQPVTDDSTIRLSGQGVNTAFSVNLQAINHDVQKIAFTATCDGNQTLSQLGNLSIQVELNGSVLMKGDVETQGRQEAALILGELYRRNTEWKFRFVAQGFNGGLKPLAEHFGVVVEDEPAAPTPVPTPVSTPAPTAPPVAKPINLSKVSLTKEKPVISLTKRDDFGEIRVNLNWHRGGGAPAKGFLQGIFNSNKGIDLDLGAFVALNDGSRGVIQALGNNFGSYHSEPYVQLQGDDRTGDVSDGEWMHINGREWKHVKEVLIFAFIYEGVPSWGSTDGIVTINVPGQAPIETQMNEGNDRKNMCAVARLVNESGNIKVERINRYFSGHKEMDEAFGWGFRWKAGSK” as the sequence, how does the “soluble on expression in E. coli” value read?
A: not soluble

Q: With “SKDVLADYKELFRQFSISDIAVWVSTPSFAGVCITEKEFNSKMLPNLESMIFIGEALSKNLTKELMSRFPNTRIINGYGPTEATVGVSVNDMTQKAIDDEK” as the sequence, how does the “soluble on expression in E. coli” value read?
A: not soluble

Q: Which “soluble on expression in E. coli” value does the source give for “MLPGTFFEVLKNEGVVAIATQGEDGPHLVNTWNSYLKVLDGNRIVVPVGGMHKTEANVARDERVLMTLGSRKVAGRNGPGTGFLIRGSAAFRTDGPEFEAIARFKWARAALVITVVSAEQTK” here?
A: soluble

Q: For “MNVTSKPGELVPESDVAAIMRGTHGDPFRVLGMHGGGGAPLSVRVFAPQAAEVAVLGQGGEVLAPLERIGAEGFFAGTVPGEEKFPYRLRFVSGPHEWEADDPYRFPEVLG”, which “soluble on expression in E. coli” value is on record?
A: not soluble

Q: Which “soluble on expression in E. coli” value does the source give for “MGSDKIHHHHHHMTHPDGLFYQLIQDLAQGKGLPHLIWRLSQILNRPVLLTNSVHRVLVFHDPHHLNLDLDEFLYVPPVKLDEADFLNRSEHSLHHGQLTLNGQVFPFVYLPLLAGDYCLGYIFVLETYPLADSLKPKSLSAEDKETIFEASMPLLLCLKNSSEVSLRQEQYRDDFIRDILYNNYDSKAAIHEKAKSWGWNLQGSLLALVIDLPDRDFKTAREILPRLFNHSSPISAYINLQLVIILNINGLKKVKLKTALNNFINSFLDRLADHGKDRSSIGIGIGSGVPSITDLYKSYQEAKVAWELGKVFDHKSVCYFEEMGFLKFIFTQPARELEEFSQRVLGPLLEYDQAENTGLLDSLRVFIEYKCQIAECSKALYVHENTLRNRIKKIEQVTGFDLRRVDHMVNVYIALQVLNLGKDD” here?
A: not soluble

Q: For “MSLSEKTFPSHARVVIVGGGVMGVGLAYHLAHEGWGHDTVLLEKAELTSGSTWHAAGQITHSTSSYGLGKCVDYNIGLYSGGLEAETGQAVTWHGCGSFRLAYTEDEMDWLRHTLSVGRSLGFNIDLVSPQRVAELHPFYNLDGVLGALHTPDDGHVDPTNVTMALAAGARAKGVRIIRRCRASNITQLASGEWQVETDQGTITCEHVVNAGGTYARQMGEWSGLQLPMTSMTHHYFVTENVPEFEALDRELPVIRDDKKVSGYIRMEQKRGLIGIYEKANPNAVWLDECPWDYENWLFDADYDRVMPWLEESLNRMPVLAERGITREVHGAISHPPDGNPLIGPAPGVRNYWCCCGTQIGIGWGPGLTRELARWMVHGAADISMRDYDPRRFGSYATKEWQVIKAKEDYCLRHEIPFPHFNRLAGRPVKPSPLYDRLKSKGAVFEEVYGHERPRWFAKAGIAQHDHYGFGRTPVHDVVGDECRAVREAAGIMDISAFTKVELSGPEAETLLDRLVANRLPRKTGGIALTHMLNAAGRIELETTVVRLASDRFYLVCAAFFEQRLLDHLDRHRGTADVTVTLRSNDWAALTLNGPRSRDILATCTDAPLDNAAFPWLTAQEITVAGHRLWAFRMSYAGELGWEFHMPRDAALAVYDALWAAGAPLGLADYGSFAMNAMRMEKGFKGAGELTNEVTLAEADVLRFARTDKAYIGREATLAPARRFVCAYLEIAPDGAHDGHGGEAVLLQGKVVGSTASVAYGHSCGKILAFAYVRPEANVAGTEVEVVIAGTPRPARILGAPAYDPEGLLPRTDAKGIITITTDPNSSSVDKLAAALEHHHHHH”, which “soluble on expression in E. coli” value is on record?
A: soluble

Q: For “NKDWNVYASANFNYNRQEITKLFFGLNKYMLPNTGTIWEIGYPNSFYMAEYAGIDKKTGKQLWYVPGQVDADGNKVTTSQYSADLETRIDKSVTPPITGGFSLGASWKGLSLDADFAYIVGKWMINNDRYFTENGGGLMQLNKDKMLLNAWTEDNKETDVPKLGQSPQFDTHLLENASFLRLKNLKLTYVLPNSLFAGQNVIGGARVYLMARNLLTVTKYKGFDPEAGGNVGKNQYPNSKQYVAGIQLSF”, which “soluble on expression in E. coli” value is on record?
A: not soluble

Q: Which “soluble on expression in E. coli” value does the source give for “MAHHHHHHMPGFADSFNGVAVGSSTMLTRGTHSSQDAVHHTDTATAAEWRALYGASADMMNSTAHTYRACGAGVSYMTPIFHLTANDVTILSMEHNNHCRLLGIATSKNQIFVTWTQVMPVIENMGMLRAPDDDLFGGEQATPVDERLLEWDPATMSILIDELPYTCTELSWAPWQQGIYLAGLCPGHGIRLYRYSHGNWALDDCIRSTESVSCSISTNFTVACACRRGRVELWVRGSTASGTAVAPGPSPSLSAGDSTATNGGDGVSHTSWVLCRVLTLPFSEDDNGGSRTHDGDRSGGAGSPSAVAARHRRRDILGVAWVESGALLAAGDQGGSVYVVAATQDSTRLGEVVYHQLPSALCGPCKQVAWSPSSGRSFLCLAMVFTTCVRLVLFRRPSFMNAAGLPHAARSVGGSGGGRMGWAHSSVAPIAASSLEVLAMTQVPCEEVAKLSWNNTGTRFVTAHLDSSVNIWAVDFRYRHPVKGDGANATSGREEANTLHSVDSARMDRQVETSVFAAAGEERLGIVVSVQCTSAVHPYHAVSK” here?
A: not soluble

Q: Which “soluble on expression in E. coli” value does the source give for “MAHHHHHHMGVCLASLMVRRSRISEVPDRYIEERRRYGPVAVACAPPEDDVSSAVYRAAGITDEEHRRICKEWYEGENIVHRLEEICAERSDRRALAYRTVQKVETEKKTDSKGHTRNWEVTYLNDPTYMTYNEFWSRLIAFGKGLRELGLAEGAAVAIAEDVRWEWLASVLAGWTQGLISVTVYANLGEAALLHALKEAECPALICNGNAVKKLVPLLHKAKLNNTMVIYLDALPAGVDAEGMMLLSWTDVLQKGLQSCFSYTIPSDCNRTALIMYTSGTVAEPKGVIHTFGSLKTGAAALEDRLTELLGPKEEGETYLAYLPLAHILEFITEMIMLNRGSLLCYGSPRTLSDMSARPRGDLAEFRPMMFVGVPRIFETIRKNVESQLPPVGSVKRSIFDAAYAARLRAIEDGKDTPF” here?
A: soluble

Q: For “MGMPEEALKIYQELLEIEKELGNEREIALTLANIAVVKDELGEADEAIKLMSEAKDIFEKINDTKNYHIALIDLAHFYYELGEYEKAMQIIEEVLRNPLDDEIEVHGRLVESEIHSALENYKKAALSLRNALLRSGDDEYLFETAFEAVLEFIEELYNEEKLEHHHHHH”, which “soluble on expression in E. coli” value is on record?
A: not soluble

Q: Which “soluble on expression in E. coli” value does the source give for “MVAVKREFELSHVFKDVSKLEDGNTFYGPEEEHFNVQWRIVLIHQKEDVAVFLRYLHPKNEQAPWKIDSEFTLKLSNSSGKSVTKTGSDIWNSYDALGFCDVFEWDSLLKDYLIDDVIIIEVAVKIKNMSGIPKKKLKSFERSNEEFSDVILAVGDKKFFVLRKFLASHSTYFETLLLGNFAEADKSEVKLQDINSTDFQNLMEVRYGEYAIDEETVDGILHLAHLYDMPFPIKRCEEFLVDSSEKSTKEKLKVAKKYQLENLKASCLAKINTLEEIKAALAGDLDEMDPSVVHALFRKSLALH” here?
A: not soluble
